Where a chain is given by its changes, count along the chain named.
T1: mouse CD73/NT5E (ACRO Biosystems, Cat No. CD3-M52H9) (mouse, UniProt Q61503 29-551)
T1 construct: Bought protein
T1 sequence (looked up): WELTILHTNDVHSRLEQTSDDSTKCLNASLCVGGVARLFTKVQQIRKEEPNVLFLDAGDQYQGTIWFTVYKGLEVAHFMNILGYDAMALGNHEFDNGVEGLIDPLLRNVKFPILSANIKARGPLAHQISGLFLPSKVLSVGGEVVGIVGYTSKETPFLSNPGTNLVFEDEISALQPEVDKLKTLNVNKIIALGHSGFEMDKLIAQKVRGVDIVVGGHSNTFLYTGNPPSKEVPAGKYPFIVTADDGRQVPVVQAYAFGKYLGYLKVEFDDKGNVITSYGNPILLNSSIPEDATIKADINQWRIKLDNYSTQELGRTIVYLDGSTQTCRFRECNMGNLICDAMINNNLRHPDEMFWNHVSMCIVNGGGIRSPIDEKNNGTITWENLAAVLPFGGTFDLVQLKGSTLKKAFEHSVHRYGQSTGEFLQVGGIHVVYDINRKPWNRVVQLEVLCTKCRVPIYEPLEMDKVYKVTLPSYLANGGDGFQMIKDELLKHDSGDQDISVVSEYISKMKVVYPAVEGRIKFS

T2: rat CD73 (Novoprotein, Cat No. CB16) (rat, UniProt P21588 29-551, limits assumed)
T2 construct: Bought protein
T2 sequence (looked up): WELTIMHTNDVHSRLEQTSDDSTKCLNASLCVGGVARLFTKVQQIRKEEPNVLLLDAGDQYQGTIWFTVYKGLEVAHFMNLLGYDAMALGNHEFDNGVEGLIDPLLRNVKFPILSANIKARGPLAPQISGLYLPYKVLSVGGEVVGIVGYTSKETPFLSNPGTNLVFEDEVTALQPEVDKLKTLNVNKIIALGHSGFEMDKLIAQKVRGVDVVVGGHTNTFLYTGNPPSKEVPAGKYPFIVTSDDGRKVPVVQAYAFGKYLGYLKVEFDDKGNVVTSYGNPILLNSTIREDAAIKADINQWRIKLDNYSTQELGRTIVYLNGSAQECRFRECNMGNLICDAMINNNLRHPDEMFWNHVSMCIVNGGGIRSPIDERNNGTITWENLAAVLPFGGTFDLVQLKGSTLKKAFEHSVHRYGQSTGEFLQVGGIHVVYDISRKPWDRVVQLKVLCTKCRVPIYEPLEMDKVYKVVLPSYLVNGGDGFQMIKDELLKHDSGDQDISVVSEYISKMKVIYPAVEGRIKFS

T3: human CD73 protein (ACRO Biosystems, Cat No. CD3-H52H7) (human, UniProt P21589 27-547)
T3 construct: Bought protein; also called recombinant CD73 protein; recombinant CD73
T3 sequence: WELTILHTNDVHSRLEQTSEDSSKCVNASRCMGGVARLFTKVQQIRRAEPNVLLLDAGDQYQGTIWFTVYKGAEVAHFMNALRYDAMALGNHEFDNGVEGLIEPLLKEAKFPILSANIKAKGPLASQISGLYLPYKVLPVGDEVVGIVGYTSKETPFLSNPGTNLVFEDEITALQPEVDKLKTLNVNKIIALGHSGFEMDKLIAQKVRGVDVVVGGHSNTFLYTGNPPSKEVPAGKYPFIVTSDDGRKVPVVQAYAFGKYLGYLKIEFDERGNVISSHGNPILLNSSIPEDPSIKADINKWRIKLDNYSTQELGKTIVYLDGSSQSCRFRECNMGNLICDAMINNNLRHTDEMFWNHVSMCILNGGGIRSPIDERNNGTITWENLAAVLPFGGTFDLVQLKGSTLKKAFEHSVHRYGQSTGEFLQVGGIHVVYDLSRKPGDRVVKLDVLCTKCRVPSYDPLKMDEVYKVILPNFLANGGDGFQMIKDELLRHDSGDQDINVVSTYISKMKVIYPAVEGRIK

B1: 900581 (antibody, human IgG1, V domains shown)
VH: EVQLVESGGGLVKPGGSLKLSCAASGFTFSKYAMSWVRQSPEKRLEWVAEISSGGGYINYPDTVTGRFTISRDNAKNTLYLEMSSLRSGDTAMYYCARAIYYYGSSYNYYAMDYWGQGTSVTVSS
VL: DIVMTQSHKFMSTSVGDRVSITCKASQDVGTAEAWYQQKPGQSPKLLIYWASTRHTGVPDRFTGSGSGTDFTLTIGNVQSEDLADYFCQQYSSYPLTFGGGTKLEIK
B2: 900695 (antibody, V domains shown)
VH: QVQLVESGGGLVKPGGSLRLSCAASGFTFSKYAMSWVRQAPGKGLEWVAEISSGGGYINYADSVTGRFTISRDNAKNSLYLQMNSLRAEDTAVYYCARAIYYYGSSYNYYAMDYWGQGTTVTVSS
VL: DIQMTQSPSSLSASVGDRVTITCRASQDVGTAEAWYQQKPGKAPKLLIYWASTRHTGVPSRFSGSGSGTDFTLTISSLQPEDFATYYCQQYSSYPLTFGQGTKLEIK
notes: Constant regions are not restated
B3: 900697 (antibody, V domains shown)
VH: B2 VH
VL: B2 VL with R54L, H55Q, T56S
notes: as for B2
B4: 900696 (antibody, V domains shown)
VH: B2 VH with V37I, T65K
VL: B2 VL with R54L, H55Q, T56S
notes: as for B2
B5: 900698 (antibody, V domains shown)
VH: B2 VH with V37I, T65K
VL: B2 VL
notes: as for B2

Target: T1, mouse CD73/NT5E (ACRO Biosystems, Cat …)
Assay: SPR (Biacore T200), antibody captured on protein A chip
Protocol: (§1) The temperatures of the sample chamber and flow path were set at 25° C. The protein A chips separately captured the antigen-binding proteins as ligands, which were immobilized at about 100 RU. […] Ten mM Glycine, pH 1.5, was regenerated for 60 s at a flow rate of 50 L/min for multiple cycle kinetic detection. The binding rate constant (ka), dissociation rate constant (kd) and dissociation equilibrium rate constant (KD) were fitted using the Fit local mode of a 1:1 binding model.

Binder | binding result
B1 | no binding (tested: up to 50 nM analyte)
B2 | no binding (tested: up to 50 nM analyte)
B3 | no binding (tested: up to 50 nM analyte)
B4 | no binding (tested: up to 50 nM analyte)
B5 | no binding (tested: up to 50 nM analyte)

Target: T2, rat CD73 (Novoprotein, Cat No. CB16)
Assay: as above
Protocol: as §1

Binder | binding result
B1 | no binding (tested: up to 50 nM analyte)
B2 | no binding (tested: up to 50 nM analyte)
B3 | no binding (tested: up to 50 nM analyte)
B4 | no binding (tested: up to 50 nM analyte)
B5 | no binding (tested: up to 50 nM analyte)

Target: T3, human CD73 protein (ACRO Biosystems, …)
Assay: SPR (Biacore T200), antibody captured on protein A chip, CD73 as analyte, 1:1 model
Protocol: as §1, with “μL/min” for “L/min”

Binder | Kd [nM] | koff [s⁻¹] | kon [M⁻¹ s⁻¹]
B1 | 1.65 | 0.000439 | 267000
B2 | 2.04 | 6.03e-05 | 29500
B3 | 1.29 | 0.000492 | 380000
B4 | 4.23 | 0.000928 | 219000
B5 | 3.12 | 0.00106 | 339000

Reference: patent US20240026024A1 (SHANGHAI HUAOTA BIOPHARMACEUTICAL, published 2024)
